Data as given in the supplement of paper PMC10567573.

B1: CDKL4 (parent)
chain: AVKKFVESEDDPVVKKIALREIRM

Variants of: B1
Assay: protein stability index of a GFP-peptide fusion (GPS, HEK-293T) (PSI 1-6); higher = more stable
Details: c terminus: a fixed tail appended
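Also: lentivirally expressed fusions sorted by FACS into six bins by GFP to DsRed ratio, PSI derived from sequencing read proportions per bin multiplied by bin number.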

Row | Variant | protein stability index
1 | AVKKFVESEDDPVVKKIALDEIRM [R20D] | 3.56
2 | AVKKFVESEDDPVVKKIALKEIRM [R20K] | 3.67
3 | AVKKFVESEDDPVVKKIALFEIRM [R20F] | 1.5
4 | AVKKFVESEDDPVVKKIALEEIRM [R20E] | 3.74
5 | AVKKFVESEDDPVVKKIALAEIRM [R20A] | 3.21
6 | AVKKFVESEDDPVVKKIALCEIRM [R20C] | 2.92
7 | AVKKFVESEDDPVVKKIALLEIRM [R20L] | 2.44
8 | AVKKFVESEDDPVVKKIALMEIRM [R20M] | 2.13
9 | AVKKFVESEDDPVVKKIALGEIRM [R20G] | 3.03
10 | AVKKFVESEDDPVVKKIALHEIRM [R20H] | 2.63
11 | AVKKFVESEDDPVVKKIALIEIRM [R20I] | 1.39
12 | AVKKFVESEDDPVVRKIALREIRM [K15R] | 2.81
13 | AVKKFVESEDDPVVTKIALREIRM [K15T] | 2.66
14 | AVKKFVESEDDPVVYKIALREIRM [K15Y] | 1.81
15 | AVKKFVESEDDPVVSKIALREIRM [K15S] | 2.59
16 | AVKKFVESEDDPVVQKIALREIRM [K15Q] | 2.86
17 | AVKKFVESEDDPVVWKIALREIRM [K15W] | 2.06
18 | AVKKFVESEDDPVVVKIALREIRM [K15V] | 1.6
19 | AVKKFVESEDDPVVKSIALREIRM [K16S] | 3.23
20 | AVKKFVESEDDPVVKCIALREIRM [K16C] | 2.92
21 | AVKKFVESEDDPVVKPIALREIRM [K16P] | 2.61
22 | AVKKFVESEDDPVVKEIALREIRM [K16E] | 3.95
23 | AVKKFVESEDDPVVKFIALREIRM [K16F] | 2.77
24 | AVKKFVESEDDPVVKRIALREIRM [K16R] | 3.18

Row | Variant | protein stability index
25 | AVKKFVESEDDPVVKMIALREIRM [K16M] | 3.17
26 | AVKKFVESEDDPVVKWIALREIRM [K16W] | 2.05
27 | AVKKFVESEDDPVVKDIALREIRM [K16D] | 3.48
28 | AVKKFVESEDDPVVKVIALREIRM [K16V] | 2.27
29 | AVKKFVESEDDPVVKQIALREIRM [K16Q] | 3.48
30 | AVKKFVESEDDPVVKIIALREIRM [K16I] | 2.19
31 | AVKKFVESEDDPVVKLIALREIRM [K16L] | 2.63
32 | AVKKFVESEDDPVVKGIALREIRM [K16G] | 3.57
33 | AVKKFVESEDDPVVKTIALREIRM [K16T] | 3.11
34 | AVKKFVESEDDPVVKHIALREIRM [K16H] | 3.22
35 | AVKKFVESEDDPVVKNIALREIRM [K16N] | 3.52
36 | AVKKFVESEDDPVVKYIALREIRM [K16Y] | 2.44
37 | AVKKFVESEDDPVVKAIALREIRM [K16A] | 3.77
38 | AVKKFVESEDDPVVKKIPLREIRM [A18P] | 3.57
39 | AVKKFVESEDDPVVKKIYLREIRM [A18Y] | 2.69
40 | AVKKFVESEDDPVVKKIDLREIRM [A18D] | 3.84
41 | AVKKFVESEDDPVVKKIILREIRM [A18I] | 2.21
42 | AVKKFVESEDDPVVKKIVLREIRM [A18V] | 2.6
43 | AVKKFVESEDDPVVKKIMLREIRM [A18M] | 1.94
44 | AVKKFVESEDDPVVKKIHLREIRM [A18H] | 2.79
45 | AVKKFVESEDDPVVKKIGLREIRM [A18G] | 3.65
46 | AVKKFVESEDDPVVKKICLREIRM [A18C] | 2.25
47 | AVKKFVESEDDPVVKKINLREIRM [A18N] | 3.35
48 | AVKKFVESEDDPVVKKIFLREIRM [A18F] | 1.76

Row | Variant | protein stability index
49 | AVKKFVESEDDPVVKKIKLREIRM [A18K] | 3.03
50 | AVKKFVESEDDPVVKKIQLREIRM [A18Q] | 3.79
51 | AVKKFVESEDDPVVKKIRLREIRM [A18R] | 2.76
52 | AVKKFVESEDDPVVKKIWLREIRM [A18W] | 2.43
53 | AVKKFVESEDDPVVKKISLREIRM [A18S] | 3.4
54 | AVKKFVESEDDPVVKKILLREIRM [A18L] | 2.29
55 | AVKKFVESEDDPVVKKIELREIRM [A18E] | 3.37
56 | AVKKFVESEDDPVVKKITLREIRM [A18T] | 3.45
57 | AVKKFVESEDDPVVKKIAVREIRM [L19V] | 3.47
58 | AVKKFVESEDDPVVKKIAPREIRM [L19P] | 4.24
59 | AVKKFVESEDDPVVKKIAYREIRM [L19Y] | 3.41
60 | AVKKFVESEDDPVVKKIAGREIRM [L19G] | 4.26
61 | AVKKFVESEDDPVVKKIARREIRM [L19R] | 2.96
62 | AVKKFVESEDDPVVKKIADREIRM [L19D] | 3.97
63 | AVKKFVESEDDPVVKKIATREIRM [L19T] | 4.34
64 | AVKKFVESEDDPVVKKIAWREIRM [L19W] | 3.15
65 | AVKKFVESEDDPVVKKIAEREIRM [L19E] | 4.76
66 | AVKKFVESEDDPVVKKIANREIRM [L19N] | 3.86
67 | AVKKFVESEDDPVVKKIASREIRM [L19S] | 4.41
68 | AVKKFVESEDDPVVKKIACREIRM [L19C] | 4.26
69 | AVKKFVESEDDPVVKKIAAREIRM [L19A] | 3.87
70 | AVKKFVESEDDPVVKKIAIREIRM [L19I] | 3.03
71 | AVKKFVESEDDPVVKKIAQREIRM [L19Q] | 4.22
72 | AVKKFVESEDDPVVKKIAHREIRM [L19H] | 3.76

Row | Variant | protein stability index
73 | AVKKFVESEDDPVVKKIAFREIRM [L19F] | 2.09
74 | AVKKFVESEDDPVVKKIAKREIRM [L19K] | 3.67
75 | AVKKFVESEDDPVVKKIAMREIRM [L19M] | 3.16
76 | AVKKFVESEDDPVVKKSALREIRM [I17S] | 4.28
77 | AVKKFVESEDDPVVKKWALREIRM [I17W] | 2.15
78 | AVKKFVESEDDPVVKKVALREIRM [I17V] | 3.22
79 | AVKKFVESEDDPVVKKHALREIRM [I17H] | 3.33
80 | AVKKFVESEDDPVVKKPALREIRM [I17P] | 3.53
81 | AVKKFVESEDDPVVKKDALREIRM [I17D] | 4.36
82 | AVKKFVESEDDPVVKKGALREIRM [I17G] | 3.08
83 | AVKKFVESEDDPVVKKTALREIRM [I17T] | 4.48
84 | AVKKFVESEDDPVVKKAALREIRM [I17A] | 3.95
85 | AVKKFVESEDDPVVKKFALREIRM [I17F] | 2.79
86 | AVKKFVESEDDPVVKKEALREIRM [I17E] | 3.93
87 | AVKKFVESEDDPVVKKYALREIRM [I17Y] | 2.85
88 | AVKKFVESEDDPVVKKQALREIRM [I17Q] | 3.46
89 | AVKKFVESEDDPVVKKLALREIRM [I17L] | 2.57
90 | AVKKFVESEDDPVVKKRALREIRM [I17R] | 3.45
91 | AVKKFVESEDDPVVKKNALREIRM [I17N] | 3.7
92 | AVKKFVESEDDPVVKKCALREIRM [I17C] | 3.32
93 | AVKKFVESEDDPVVKKMALREIRM [I17M] | 2.87
94 | AVKKFVESEDDPVVKKKALREIRM [I17K] | 3.87
